Consider one substance from US20220227846A1.

What all share (assay): SPR, calculated KD (Qdat software)
For experiment [1], the target named is C-terminal biotinylated Aβ42 ADDLs/globulomers (UniProt P05067).
The target in experiment [2] is N-terminal biotinylated Aβ42 monomers (UniProt P05067).
The target in experiment [3] is C-terminal biotinylated Aβ42 monomers (UniProt P05067).
Experiment [4] deals with Aβ42 oligomers (ADDLs/globulomers) (UniProt P05067).
Another experiment deals with Aβ42 fibrils (UniProt P05067).
Chain of Aβ42 fibrils (P05067 672-713 limits assumed): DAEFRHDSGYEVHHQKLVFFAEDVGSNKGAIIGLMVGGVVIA

Chain of C-terminal biotinylated Aβ42 ADDLs/globulomers (P05067 672-713 limits assumed): as above
Chain of N-terminal biotinylated Aβ42 monomers (P05067 672-713 limits assumed): as above
Chain of Aβ42 oligomers (ADDLs/globulomers) (P05067 672-713 limits assumed): as above
Chain of C-terminal biotinylated Aβ42 monomers (P05067 672-713 limits assumed): as above

Consider “6E10 (mouse mAb to Aβ amino acids 1-16; BioLegend, San Diego, CA) (antibody)”, for which the equilibrium dissociation constant (Kd) was 50 nM in experiment [1]; 158 nM in experiment [2]; 47 nM in experiment [3]; 69 nM in experiment [4]; 56 nM with Aβ42 fibrils.

As a reminder, the Kd is the constant that tells how readily two partners part at equilibrium.
